Source: patent publication US12227551B2, “Membrane bound IL12 compositions and methods for tunable regulation” (Obsidian Therapeutics, Inc., priority 2018, dated 2025)

Columns and labels:
T cells = assay: Percentage of CAR positive cells after 10 days expansion (Example 7); type: cell-based; details: T cells expanded for 10 days
[1] = Body weight and clinical signs of GVHD, Nalm6-Luc NSG model (Example 9; Table 30); type: in vivo, NSG mice; details: in g (unit assumed)
Protocol: (§1) The study was designed to determine if membrane bound IL12 (mbIL12) expressed on CAR-T cells via a CD8 TM domain and CD8 Hinge Region promotes CAR T cell expansion in cis, promotes non-CAR-T cell expansion in trans, and/or increases in vivo CAR T cell efficacy against CD19+ Nalm6 tumors. To test in vivo anti-tumor activity, experiments were performed in NSG mice. Nalm6 cells were transfected with Redifect Red-Fluc (Perkin Elmer) under selection using Puromycin for ˜2 months to generate a line that stably expresses the luciferase reporter; thereafter named Nalm6-Luc. Ten days before tumor implantation, Nalm6-Luc cells were thawed and cultured in puromycin-containing media. On day 0, cells were counted, resuspended in PBS and injected into NSG mice via tail vein. On day 6, mice were imaged for bioluminescent intensity (BLI) and sorted into groups based on their tumor size ensuring that all groups had the same sized tumors. Human T cells were transduced with one of the following constructs as shown in the study design in Table 27:
The amount of body weight loss appeared to correlate with the levels of plasma IL12 detected at earlier timepoints (Table 31).

[2] = Plasma IL12 and IFNgamma cytokine levels, Nalm6-Luc NSG model (Example 9; Table 31); type: in vivo, NSG mice; details: day 14 post T cell transfer
Protocol: as §1
Thus, anti-tumor efficacy (Table 28) appears to correlate with plasma cytokine levels.

[3] = tested on: CAR+ T cells and GFP+ T cells; assay: CAR-T and GFP+ T cell expansion in peripheral blood by flow cytometry (Example 9; Table 32); type: in vivo, NSG mice; details: cell numbers in 50 uL blood
Protocol: (§2) Next, holding total CAR+ T cell dose constant at either 300,000 or 1 million cells per animal, transduced T cells were intravenously infused into mice on day 7. Tumors were monitored in mice using BLI and the mean of the Total Flux (photons/second) was calculated for each group as an indicator of tumor burden (Table 28). In order to track the trans effect of IL12 expressing CART cells on T cells that lack expression of IL12, 5 million GFP+ T cells (negative for IL12) were co-infused with the IL12-expressing CAR+ T cells, and peripheral blood draws taken over time to evaluate the effect of IL12 on phenotypic changes in GFP+ T cells by flow cytometry analysis.
Thus, anti-tumor efficacy (Table 28) appears to correlate with CAR-T cell expansion.

CD19+ Nalm6 tumors [4] = assay: Nalm6-Luc tumor burden by BLI, mean total flux, NSG mice, B7.1 TM mbIL12 constructs (Example 10; Table 34); type: in vivo
Protocol: as §1, with “To” for “The study was designed to determine if membrane bound IL12 (mbIL12) expressed on CAR-T cells via a CD8 TM domain and CD8 Hinge Region promotes CAR T cell expansion in cis, promotes non-CAR-T cell expansion in trans, and/or increases in vivo CAR T cell efficacy against CD19+ Nalm6 tumors. To”, “ensure” for “ensuring”, “33:” for “27:”
as §2, with “at” for “at either 300,000 or”, “34).” for “28).”, “on” for “on T cells”, “10” for “5”

CD19+ Nalm6 tumors [5] = assay: Kaplan-Meier animal survival (Example 10; Table 35); type: in vivo, NSG mice
Protocol: as §1, with “To” for “The study was designed to determine if membrane bound IL12 (mbIL12) expressed on CAR-T cells via a CD8 TM domain and CD8 Hinge Region promotes CAR T cell expansion in cis, promotes non-CAR-T cell expansion in trans, and/or increases in vivo CAR T cell efficacy against CD19+ Nalm6 tumors. To”, “ensure” for “ensuring”, “33:” for “27:”
Percent survival was also measured for each group during the course of the experiment and the following numbers were obtained as shown in Table 35: […]

[6] = tested on: CAR+ T cells and GFP+ T cells; assay: CAR-T and GFP+ T cell expansion in peripheral blood by flow cytometry (Example 10; Table 37); type: in vivo, NSG mice; set-up: unit not given here; details: day 14 post T cell transfer, 1 million CAR+ T cells
Protocol: as §2, with “at” for “at either 300,000 or”, “34).” for “28).”, “on” for “on T cells”, “10” for “5”
Thus, anti-tumor efficacy (Table 34) appears to correlate with CAR-T cell expansion.

B1: OT-001356: CD19 CAR; stop; IRES; secreted IL12 (p40 23-328; (G4S)3; p35 57-253); nucleic acid SEQ ID NO: 482 (protein)
chain: IWELKKDVYVVELDWYPDAPGEMVVLTCDTPEEDGITWTLDQSSEVLGSGKTLTIQVKEFGDAGQYTCHKGGEVLSHSLLLLHKKEDGIWSTDILKDQKEPKNKTFLRCEAKNYSGRFTCWWLTTISTDLTFSVKSSRGSSDPQGVTCGAATLSAERVRGDNKEYEYSVECQEDSACPAAEESLPIEVMVDAVHKLKYENYTSSFFIRDIIKPDPPKNLQLKPLKNSRQVEVSWEYPDTWSTPHSYFSLTFCVQVQGKSKREKKDRVFTDKTSATVICRKNASISVRAQDRYYSSSWSEWASVPCSGGGGSGGGGSGGGGSRNLPVATPDPGMFPCLHHSQNLLRAVSNMLQKARQTLEFYPCTSEEIDHEDITKDKTSTVEACLPLELTKNESCLNSRETSFITNGSCLASRKTSFMMALCLSSIYEDLKMYQVEFKTMNAKLLMDPKRQIFLDQNMLAVIDELMQALNFNSETVPQKSSLEEPDFYKTKIKLCILLHAFRIRAVTIDRVMSYLNASGS
Percentage of CAR positive cells (T cells): 45.3%
body weight ([1]; day 6 post tumor implant (before T cell infusion)): 19.6125
body weight ([1]; day 13 post tumor implant): 20.5125
body weight ([1]; day 20 post tumor implant): 20.5875
body weight ([1]; day 27 post tumor implant): 22.2125
body weight ([1]; day 34 post tumor implant): 21.8875
body weight ([1]; day 41 post tumor implant): 19.93
Day 14 Plasma IFNgamma Levels ([2]; cell dose 0.3 ×10e6): 17,565 pg/mL
Day 14 Plasma IL 12 Levels ([2]; cell dose 0.3 ×10e6): 1,455 pg/mL
Day 14 Plasma IFNgamma Levels ([2]; cell dose 1 ×10e6): 22,154 pg/mL
Day 14 Plasma IL 12 Levels ([2]; cell dose 1 ×10e6): 3,853 pg/mL
Cis Effect: Numbers of CAR+ Cells on Day 14 ([3]; cell dose 0.3 ×10e6): 1402.64
Trans Effect: Numbers of GFP+ Cells on Day 14 ([3]; cell dose 0.3 ×10e6): 400.00
Cis Effect: Numbers of CAR+ Cells on Day 14 ([3]; cell dose 1 ×10e6): 3789.89
Trans Effect: Numbers of GFP+ Cells on Day 14 ([3]; cell dose 1 ×10e6): 332.75
Mean Total Flux (Nalm-6 Tumor Burdon) (CD19+ Nalm6 tumors [4]; day 6 post tumor implant, day −1 post T cell transfer (before infusion), 1 million CAR+ T cells): 2667500 photons/second
Mean Total Flux (Nalm-6 Tumor Burdon) (CD19+ Nalm6 tumors [4]; day 15 post tumor implant, day 8 post T cell transfer): 72220000 photons/second
Mean Total Flux (Nalm-6 Tumor Burdon) (CD19+ Nalm6 tumors [4]; day 19 post tumor implant, day 12 post T cell transfer): 3141750 photons/second
Mean Total Flux (Nalm-6 Tumor Burdon) (CD19+ Nalm6 tumors [4]; day 22 post tumor implant, day 15 post T cell transfer): 1001125 photons/second
Mean Total Flux (Nalm-6 Tumor Burdon) (CD19+ Nalm6 tumors [4]; day 27 post tumor implant, day 20 post T cell transfer): 991750 photons/second
Mean Total Flux (Nalm-6 Tumor Burdon) (CD19+ Nalm6 tumors [4]; day 30 post tumor implant, day 23 post T cell transfer): 797000 photons/second
Mean Total Flux (Nalm-6 Tumor Burdon) (CD19+ Nalm6 tumors [4]; day 33 post tumor implant, day 26 post T cell transfer): 887000 photons/second
Mean Total Flux (Nalm-6 Tumor Burdon) (CD19+ Nalm6 tumors [4]; day 36 post tumor implant, day 29 post T cell transfer): 627875 photons/second
Mean Total Flux (Nalm-6 Tumor Burdon) (CD19+ Nalm6 tumors [4]; day 41 post tumor implant, day 34 post T cell transfer): 697500 photons/second
Kaplan-Meier Analysis of Animal Survival (percent survival) (CD19+ Nalm6 tumors [5]; day 0 post tumor implant): 100%
Kaplan-Meier Analysis of Animal Survival (percent survival) (CD19+ Nalm6 tumors [5]; day 41 post tumor implant): 100%
Cis Effect: Numbers of CAR+ Cells on Day 14 [6]: 1777
Trans Effect: Numbers of GFP+ Cells on Day 14 [6]: 99
